Source: the DeepSol protein solubility set

Experiment: soluble on expression in E. coli; label from the status in PepcDB or PDB records

Which “soluble on expression in E. coli” value does the source give for “MSLEAKMEQIYQQIADTLVNIVPEEWKQILLYAEYREGYKKIFFYYYPETRIKPVYSLDITDLFHMNEDKYHELENKLYHCFSRLWEEFKEQEQQQWTNLTYTLDNTGRMKINYGYEDLFELSPVEKQEKWEAEYLEQEIEEGHHHHHH” here?
Its value is “soluble”.

With “MSLEASLLKKNQSIELTIEDLTHDGSGVGKIDGYPFFIPNTLPGEKVTAKIIKLNKNYGFARMENIETVSANRVEPPCAVYSKCGGCSLQHLSYDGQLEFKRNQVEETMKRIGKLNVEVPETLGMENPWRYRNKSQVPVGFVNGKLTAGFYQKRSHAIIDMSTCLIHNEQGDFAVQKTREILAKYGTEPYDEQTGKGDIRHIMTRFAHTTGQLMIVLVTTKERMPFKEEIVRDLVEQLELTSIVQNINPHKTNVIFGDRTKTLWGKDIIEDTIHGIRFAISARSFYQVNPLQTEVLYQQAIDAAELTGEETVIDAYCGIGSISLCLAKKAKHVYGVEIVDQAIQDARANAELNELANTTFETGKAEEVIPSWYKAGIVADVLVVDPPRKGCDEKLLETILAMKPKKVVYVSCNPGTLARDMKILTDGGYVAKKVQPVDMFPMTTHIEAVTVLHLNEGHHHHHH” as the sequence, how does the “soluble on expression in E. coli” value read?
The value was “soluble”.

Which “soluble on expression in E. coli” value does the source give for “MSLEDHAEELASDLGVDKEEVTRDLENLVNYSVPMDEAKQSLRRKYGDGSSGGDSTPSSKAINEVSTEDSNVTVTAVVLTSGRRSIQYNGEQHVIREGELADETGKISYTAWDGFSGDLQPGQTVQLGNAGVREWDGQPELNLGDSTDPEVVDETLDIDYDVGGRAALQDLAPGDRGITVEVQVLECEQKVIDGRDGETTILSGVLGDESGRLPFTDWDPHDEIEEGASVRLDETFVREFRGAPSVNVSEFSAVTALDRTVGVTEDAPRLSVREAVESGGLFDVELAGNVIEVRDGSGLIERCPECGRVIQNGQCRSHGAVEGEDDLRTKAILDDGTDTVTAVLDDELTARVYGGDLDDAREHARDAMDKEVVAERISDRIVGREYVVRGSLSVDEYGANLTASTFAEADDDPATRAQALLQEADTLEHHHHHH” here?
Its value is “soluble”.

With “MSLEDYSVVNRFESHGGGWGYSAHSVEAIRFSADTDILLGGLGLFGGRGEYTAKIKLFELGPDGGDHETDGDLLAETDVLAYDCAAREKYAMMFDEPVLLQAGWWYVAWARVSGPSSDCGSHGQASITTDDGVIFQFKSSKKSNNGTDVNAGQIPQLLYRLPTSDGSTSKGKQQTSEPVHILKRSFARTVSVECFESLLSILHWSWTTLVLGVEELRGLKGFQFTATLLDLERLRFVGTCCLRLLRVYTCEIYPVSATGKAVVEETSKLAECIGKTRTLLRKILSEGVDHCMVKLDNDPQGYLSQPLRLLEAVLQECHNTFTACFHSFYPTPALQWACLCDLLNCLDQEANFKTSSSRLLAAVMSALCHTSVKLTSLFPIAYDGEVLLRSIVKQVSTENDSTLVHRFPLLVGHMEKLSQSEENISGMTSFREVLEKMLVIVVLPVRNSLRRESELFSSHLVSNTCGLLASIVSELTASALGSEVDGLNSLHSVKASANRFTKTSQGRSWNTGNGSPDAICFAVDKPGIVVVGFAVYGGGGIHEYELEVLVDDSEHAGDSTHSHRWTSLELVKGTYTTDDSPSDIAEIRLDKVVPLKENVKYAVRLRNYGSRTANGDGGMTTVQCPDGVTFTFSTCSLSSNGTNQTRGQIPQILYYRSEEGHHHHHH” as the sequence, how does the “soluble on expression in E. coli” value read?
Its value is “not soluble”.

Which “soluble on expression in E. coli” value does the source give for “MSLEEWEKHMQNFIPDMLVTFPLAPRSDEYFYEHIEANDGAVHLRGGFFVGGDEGSASVDFSITDPDGDIIYKKSKSEGLFYFTAKKKGTYSFIVSNHQWLESRMVTFAIGRGNETALMPKHVQTAGEMADTLQNQLRDIQLLLLQQEKENGSSSSVSEEKADATASAASAGGLTDREMKQVIYGACRKVDARNATEIPSCRGIPLTEVHRHWVIEEKERIARMGGTIENGRVNGSLEVTRSFGDISLKRYGVSCVPTVKKFTLDPALDEFVLMGCDGFWNCWTASEALNLASEAWEKEIRSSKVHSRPVDPQNVSKQLVEHVLIDKKSQDNITVLLLKISRKEGHHHHHH” here?
The value was “soluble”.

Which “soluble on expression in E. coli” value does the source give for “MSLEFLIYSLPEEVLREEMLGNFSVALKLIDDFLKKDLPLLQRERLIYEKERIERLLEDYPFTEKEAMEKMREMFEGFSEGEFQYLMNEGVLDYIVVEGEKRFERRFFHNLAFVRSEYRERLRKDERSEKARRILHERLERLIKGEDPKRYRIRARITLKLKETSSKHRVWLPFPKESLQIESVKLLRTSHKSYYISPNDVPQRTIYFEGEDSTFFVEFEYIVREWVNHVDPERVSEKVAGFEEFLKEEPPHIVFTPKLRWLTQTVVGSEVNPYLKAKRIYDWITLNVRYSYVKPYALYENITDFVVNNLKGDCGFQALLFITMCRIAGVPARWQSGWYINPIFGSPHDWALFYVEPYGWLPADLSFGGARRDNESFRSFYFGNLDGFRMVANDGFMKDFDPKTRFVRSDPTDNQVGEAESEEKRLPFESTIEVISFEEVEGGSHHHHHH” here?
Its value is “soluble”.

With “MSLEFYIADFKQIKEGKVTDIYFERTLKTLEYLGIKDAKVRMEVHSYGLPKGYEWALFTGLEEVLHLLEGVPVNVYAMPEGTLFKEIEPVMIIEGNYLDFGIYETAFLGILRHYSSISTKAARLKFLAMDKTLFFFGLRSLHPALAPMADRAAYIGGMDGVSGAMSKEYLGVDPSGTMPHALMLIVGDNVKAWKAFDEAMGSEVPRITLVDTFEDERTEALKAATLLGKKLYGIRLDTPSSRRGNFRKIIQEVKWTLKIHGYDHVKIFASGGIDEDDIINLRDIVDGFGIGTSIAFPPSVDFSADIVEKFVDGKWVPFTKRGKWPGAKQVYRCGKLNDVITLMDQEHPSSDCKPLLQKYMENGKIIKPLPSPKEIREYVIKQLTELQSSEGHHHHHH” as the sequence, how does the “soluble on expression in E. coli” value read?
The value was “soluble”.

For “MSLEGEKRVELHLHSPMSQMDAVTGIGKLVEQAKKWGHEAIALTDHAVVQSFPDAYSAAKKHGIKMIYGMEANLVDDGVPIAYNAAHRLLEEETYVVFDVETTGLSAVYDTIIELAAVKVKGGEIIDKFEAFANPHRPLSATIIELTGITDDMLQDAPDVVDVIRDFREWIGDDILVAHNASFDMGFLNVAYKKLLEVEKAKNPVIDTLELGRFLYPEFKNHRLNTLCKKFDIELTQHHRAIYDTEATAYLLLKMLKDAAEKGIQYHDELNENMGQSNAYQRSRPYHATLLAVNSTGLKNLFKLVSLSHIHYFYRVPRIPRSQLEKYREGLLIGSACDRGEVFEGMMQKSPEEVEDIASFYDYLEVQPPEVYRHLLELELVRDEKALKEIIANITKLGEKLNKPVVATGNVHYLNDEGHHHHHH”, which “soluble on expression in E. coli” value is on record?
The value was “soluble”.

For “MSLEIGILDIKGSLPLFEDFGNLPTKIITENNYKEIKDLDALIIPGGSLIESKSLNDDLKKEIINFNGYIIGICSGFQILAKKIDIGRKSSVPIIKEGLGLLDVEFSPLVCTDRVEFEVKKSIFGEGKGEGFHCHTYGNIEVVDKETKILTVSKVKKLNYKLGAEKEIISGAFKGKVFGTMVHNFLDNEFVRDNFLKHLGVTEDEKEEIFEKNKIIKDELKKRALKYRLNPKLLKENNKKDVNKKRGIILLATSSNSGKTFLTTALSSKLNGRVFVAKIGGDVRDIVPALYLLREKMTKYNSIKIGERGWVDVSKFLDYIKKSDYDYIIVEGVMGAFTAALKNISSYQIAKKLGFPVYIVSACNISGIEGAFVEAMAYYSLLKDIGIKVEGVILNKVYDWNSFNKLKSLAEKHNIKLYGVGKIANESRGLIPEVEIDYESFCRNAFNVDLEIEIPEVEINNHIKDEEDNFLERLDNWMENINEGHHHHHH”, which “soluble on expression in E. coli” value is on record?
The value was “soluble”.

For “MSLEISASIIDISENALEQLGVDWRLHNSRFDLQTGNGTNTMLNNPGSLDSVATTAGAAAAIAATPAGGVLSAVIGGGSRYLMARISALQQTDQARITANPKVATLDNTEAVMDNRQNFYVPVAGYQSADLYAISAGVSLRVLPMVVMDGGTVRIRMNVHIEDGQITSQQVGNLPITSQSEIDTQALINEGDSLLIAGYSVEQQSKSVDAVPGLSKIPLVGALFRTDQTTGKRFQRMFLVTPRVITEGHHHHHH”, which “soluble on expression in E. coli” value is on record?
Its value is “not soluble”.

For “MSLEKHKVDFYNIPIVDYLLSIGEPLESVGHNYYQHKHHDSLKINQRKNYFVWNSRSSEKNSRGGVVQYMQIMHNLSLQETLSKLSEDLDGKVLPAIPKKSYPKKFNYKVKEAIVPLETQRYLVAKRKIPNKIVRLFFSYDLISQNENNEVIFKWFKGDKVMGFSKQGTIPLTDEEKEKYHTKRDFFKYVAPTTEADTMWGFNYLSGEPKHIFFFESEIDLMSYYSIFEEELNETGNFWLISINGVAIEKVYSFFRYGIENLNLKETCQSLHVCFDNDIAGKQACNKLQHLEFKNIPFQNDLPKEFKDWNEVLQNKEGHHHHHH”, which “soluble on expression in E. coli” value is on record?
Its value is “soluble”.

With “MSLEKHRMLVIDDDPIAHQIMQMLFEAELRLTCKVTGEEGLSAVEEEQPEIVLLDIEMEGMDGYEACRRIRQLNLPSQPYIIFVSAHSDPVKRLAAYSVGGEDFVSKPLQPQELTRKVEQALRYRREGHHHHHH” as the sequence, how does the “soluble on expression in E. coli” value read?
The value was “not soluble”.

For “MSLELIPCGWRRYVEFRMTIVNHISPIHSVDKKGWRWFDENTKNWGFKDMIPAVILNNVNVGFLLNGEITIIAEVEVHEFIDTLNASQVEELSDDSSEDLQNKDNVTIEVNGFQVLDSQVDQVNAIFEKHPDLISNFSLKNQHIRNAYMHALLDLTKTLSKSTKELTVEDMNEADNTITDLIKAGLNLDWLRQKFDQALEKQIAYDTRIGELEKQVKKRKLAVTELEADLEKEKAAASASLMLFDEGHHHHHH”, which “soluble on expression in E. coli” value is on record?
The value was “not soluble”.

For “MSLELKVHETILEVNLGAMVANLNHYRSMLKPETKMVCMVKASAYGAGSYEIAKTLQEHHADYLAVAVADEGSDLRKAGITASIIIMDPELTAFKTMFDYKLEPEVYNFHLLDALIKAAEKEGITNFPIHVKLDTGMHRLGFEEKDIPQLIRRLKNQNALIPRSVFSHFVGSDSAQFDAFTRQQIERYEKMSKELQDAFPHKILRHICNTAGIERFPGAQFDMVRLGIGLYGISPIDNSIINNVSTLKTTILQIRDVAEEDTVGYSRKGHLIRPSRIAAIPIGYADGLNRHLGCGHGYCLVNGKKAPYVGNICMDVCMIDVTDIDCREGDQAIIFGDELPITALSDALETIPYEVLTGISTRVKRVYYQDEGHHHHHH”, which “soluble on expression in E. coli” value is on record?
The value was “soluble”.

For “MSLELTISELKENFWGEYEYLDGGYMAARLAVLEHLEQIKRQSGIIIIREITEEYFAPVGNWHIRETVRNAMKNRLGKYDNLNLAISEVNKKLKAKINLFELRTINSLINQKSIYDFFKEGHHHHHH”, which “soluble on expression in E. coli” value is on record?
Its value is “not soluble”.

With “MSLEMGMNWTHTPLALSALMFAMAAQATPNQATDAVAPEQATGFEHKSLVKAKNWMVTAANPLASEAGASILRQGGNAIDAMVTTQLMLGLVEPQSSGIGGGSFLVYWDAKKKALTTFDGRETAPLNATPELFLDSTGQPMKFYDAVVGGRSVGTPGTVKLLWETHRQYGKLEWARLIEPVAKLAEQGFEVSPRLAALIAEDKERLGRFPATKAYFFDAQGEPLTAGTLLKNPDYAATLRAIAQQGASAFYQGDIAKDIIATVQNAPGNPGVLAQQDFDTYQVKQRAPVCAAYQSYQVCGMGLPSSGGLTVGQILALTEQYDLKGWGAQDVKSWQVLGDASQLAFADRGLYMADQDYVPVPTQGLLDKTYLAERAKLIQPGKALTSAPAGNPPWHHAQLRSPDQSIELPSTSHFNIVDREGNVVSFTTSIENAFGSRLLVRGFLLNNELTDFSFATQSEGRPIANRLEPGKRPRSSMAPTIVLQDNQPYLAIGSPGGSRIIGYVAQAIVAHTQWGMNIQAAINQPHVLNRFGEIELEQGTSAEQFKPALESLGAKVGIKELNSGLHAIRITAQGLEGAADPRREGVAIGEGHHHHHH” as the sequence, how does the “soluble on expression in E. coli” value read?
The value was “not soluble”.

Which “soluble on expression in E. coli” value does the source give for “MSLENIIARRYAKAIASRADINDFYQNLCILNSAFVLPKFKNIIESNEIKKERKMEFLDSFFDIKNSSFQNFLRLLIENSRLECIPQIVKELERQKAFKENIFVGIVYSKEKLSQENLKDLEVKLNKKFDANIKLNNKISQDDSVKIELEELGYELSFSMKALQNKLNEYILKIEGHHHHHH” here?
The value was “not soluble”.
